Article PMC9329571, “Regulation of TIA-1 Condensates: Zn2+ and RGG Motifs Promote Nucleic Acid Driven LLPS and Inhibit Irreversible Aggregation”

How the values were obtained:
[1] = biological target: FUS-RBD (RGG1-RRM-RGG2-ZnF-RGG3) (UniProt P35637 242-526); experiment: fluorescence anisotropy; 12 mM arginine; FA: 10 mM HEPES pH 7.2, 50 mM NaCl, 12 mM arginine (further 1 mM component truncated in the text); temperature not stated; KD from two independent measurements.; conditions: protein: recombinant; tags: N-terminal GB1-6xHis; label: 5'-fluorescein; single strand
Sequence of FUS-RBD (RGG1-RRM-RGG2-ZnF-RGG3) (P35637 242-526): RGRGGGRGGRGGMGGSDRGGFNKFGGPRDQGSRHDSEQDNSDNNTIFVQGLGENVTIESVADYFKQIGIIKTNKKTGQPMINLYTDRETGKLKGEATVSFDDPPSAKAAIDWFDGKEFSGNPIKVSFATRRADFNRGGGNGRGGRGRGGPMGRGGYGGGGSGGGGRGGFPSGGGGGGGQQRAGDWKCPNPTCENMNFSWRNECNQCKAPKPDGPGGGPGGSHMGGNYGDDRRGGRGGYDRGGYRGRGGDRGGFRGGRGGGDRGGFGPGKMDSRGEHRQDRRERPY

[2] = biological target: T1, TIA-1 RRM2,3 (UniProt P31483-2 93-274); experiment: as above; conditions: protein: recombinant; tags: 6xHis removed with thrombin; label: 5'-fluorescein; single strand
T1 sequence: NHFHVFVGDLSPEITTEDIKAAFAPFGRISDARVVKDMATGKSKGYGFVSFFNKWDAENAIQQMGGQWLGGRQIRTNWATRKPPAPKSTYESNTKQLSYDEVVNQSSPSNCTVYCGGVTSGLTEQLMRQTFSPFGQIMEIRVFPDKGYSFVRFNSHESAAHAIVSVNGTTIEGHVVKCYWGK

What does the source list for TTTTTACTCC (ssDNA) [TC1]?
Kd [1]: 30 nM; Kd [2]: 2 nM
